Measured values reported in FireProtDB (doi:10.1021/bi001735j).
“And” between values parts separate entries of the source, which are not always exact repeats. Equal entries are not always repeated.

Settings: Homo sapiens, pH 7, 25 °C, GdnHCl, CD, sodium cacodylate 50 mM, NaCl 50 mM, whole UniProt chain shown

B1: Alpha-lactalbumin wild type, P00709 (protein)
chain: MRFFVPLFLVGILFPAILAKQFTKCELSQLLKDIDGYGGIALPELICTMFHTSGYDTQAIVENNESTEYGLFQISNKLWCKSSQVPQSRNICDISCDKFLDDDITDDIMCAKKILDIKGIDYWLAHKALCTEKLEQWLCEKL
In the case of B1, the denaturant m value (transition: 3) is reported as 2.2 kcal/mol/M and 0.77 kcal/mol/M and 0.75 kcal/mol/M, the denaturant m value is reported as 2.9 kcal/mol/M and 2.4 kcal/mol/M and 4.4 kcal/mol/M and the unfolding free energy is reported as 6.9 kcal/mol and 7.2 kcal/mol and 13.8 kcal/mol.
